Target: thermostable exoshell (tES) (Archaeoglobus fulgidus) (UniProt O29424)
Test: AUC; unpublished observations; no conditions given

Chain of UniProt O29424 (O29424 entry or part of it): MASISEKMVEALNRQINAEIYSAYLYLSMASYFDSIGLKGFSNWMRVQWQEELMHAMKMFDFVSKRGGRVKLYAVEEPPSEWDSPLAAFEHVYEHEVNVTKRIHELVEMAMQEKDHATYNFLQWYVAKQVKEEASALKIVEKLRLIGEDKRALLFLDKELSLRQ

- stoichiometry N (HRP molecules per tES): 2
Substance: horseradish peroxidase (HRP) (from UniProt P00433 31-338) (enzyme)

Reference: paper PMC8622885
